In publication PMC10397247:
Each block holds one binder with its values, some of them ahead of it.

Tests used:
4H327-AA = target: T1, 4H327-AA; assay: two-hybrid library CCmax; conditions: mean of both orientations;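 further: natural log of median RNA to DNA barcode read ratio; higher means stronger binding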
T1 chain: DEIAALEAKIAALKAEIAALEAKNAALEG

4H369-AA = target: T2, 4H369-AA; assay: two-hybrid library CCmax;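 further: natural log of median RNA to DNA barcode read ratio; higher means stronger binding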
T2 chain: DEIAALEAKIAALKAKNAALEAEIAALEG

4H4033-AA = target: T3, 4H4033-AA; assay: two-hybrid library CCmax; conditions: mean of both orientations;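 further: natural log of median RNA to DNA barcode read ratio; higher means stronger binding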
T3 chain: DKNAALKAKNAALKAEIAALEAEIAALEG

4H2614-AA = target: T4, 4H2614-AA; assay: two-hybrid library CCmax; conditions: mean of both orientations;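 further: natural log of median RNA to DNA barcode read ratio; higher means stronger binding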
T4 chain: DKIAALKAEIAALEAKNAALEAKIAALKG

4H3605-AA = target: T5, 4H3605-AA; assay: two-hybrid library CCmax; conditions: mean of both orientations
T5 chain: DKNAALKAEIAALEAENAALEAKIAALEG

4H481-AA = target: T6, 4H481-AA; assay: two-hybrid library CCmax; conditions: mean of both orientations
T6 chain: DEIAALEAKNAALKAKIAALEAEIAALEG

4H3922-AA = target: T7, 4H3922-AA; assay: two-hybrid library CCmax; conditions: mean of both orientations
T7 chain: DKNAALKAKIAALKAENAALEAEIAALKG

4H2608-AA = target: T8, 4H2608-AA; assay: two-hybrid library CCmax; conditions: mean of both orientations
T8 chain: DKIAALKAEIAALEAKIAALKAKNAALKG

4H2935-AA = target: T9, 4H2935-AA; assay: two-hybrid library CCmax; conditions: mean of both orientations
T9 chain: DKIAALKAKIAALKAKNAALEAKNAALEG

4H2726-AA = target: T10, 4H2726-AA; assay: two-hybrid library CCmax; conditions: mean of both orientations
T10 chain: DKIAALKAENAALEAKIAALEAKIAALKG

4H3664-AA = target: T11, 4H3664-AA; assay: two-hybrid library CCmax; conditions: mean of both orientations
T11 chain: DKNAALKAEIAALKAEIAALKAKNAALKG

4H3625-AA = target: T12, 4H3625-AA; assay: two-hybrid library CCmax; conditions: mean of both orientations
T12 chain: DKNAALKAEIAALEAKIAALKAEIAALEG

4H662-AA = target: T13, 4H662-AA; assay: two-hybrid library CCmax; conditions: mean of both orientations
T13 chain: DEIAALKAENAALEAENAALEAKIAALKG

O3-AA = target: T14, O3-AA; assay: two-hybrid library CCmax
T14 chain: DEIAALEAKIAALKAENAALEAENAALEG

4H55-AA = target: T15, 4H55-AA; assay: two-hybrid library CCmax; conditions: mean of both orientations
T15 chain: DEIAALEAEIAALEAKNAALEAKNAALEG

4H2536-AA = target: T16, 4H2536-AA; assay: two-hybrid library CCmax
T16 chain: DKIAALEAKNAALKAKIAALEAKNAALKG

4H3782-bN = target: T17, 4H3782-bN; assay: two-hybrid library CCNG1
T17 chain: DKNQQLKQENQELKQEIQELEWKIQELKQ

4H3817-bH = target: T18, 4H3817-bH; assay: two-hybrid library CCNG1
T18 chain: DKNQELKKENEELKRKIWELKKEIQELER

4H3129-bH = target: T19, 4H3129-bH; assay: two-hybrid library CCNG1
T19 chain: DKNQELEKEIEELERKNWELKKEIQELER

4H855-bN = target: T20, 4H855-bN; assay: two-hybrid library CCNG1
T20 chain: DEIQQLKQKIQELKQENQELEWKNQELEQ

4H454-bN = target: T21, 4H454-bN; assay: two-hybrid library CCNG1
T21 chain: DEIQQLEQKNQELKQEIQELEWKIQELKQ

4H717-bN = target: T22, 4H717-bN; assay: two-hybrid library CCNG1
T22 chain: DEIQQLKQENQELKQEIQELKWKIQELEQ

4H953-bN = target: T23, 4H953-bN; assay: two-hybrid library CCNG1
T23 chain: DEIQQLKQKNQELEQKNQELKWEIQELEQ

4H780-bN = target: T24, 4H780-bN; assay: two-hybrid library CCNG1
T24 chain: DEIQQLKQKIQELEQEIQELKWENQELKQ

4H3354-bN = target: T25, 4H3354-bN; assay: two-hybrid library CCNG1
T25 chain: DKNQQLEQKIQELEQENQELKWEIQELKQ

4H72-bN = target: T26, 4H72-bN; assay: two-hybrid library CCNG1
T26 chain: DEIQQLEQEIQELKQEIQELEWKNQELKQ

4H3427-bN = target: T27, 4H3427-bN; assay: two-hybrid library CCNG1
T27 chain: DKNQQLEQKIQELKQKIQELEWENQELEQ

4H918-bN = target: T28, 4H918-bN; assay: two-hybrid library CCNG1
T28 chain: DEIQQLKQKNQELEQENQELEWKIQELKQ

4H346-bN = target: T29, 4H346-bN; assay: two-hybrid library CCNG1
T29 chain: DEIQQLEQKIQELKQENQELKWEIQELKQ

4H607-bN = target: T30, 4H607-bN; assay: two-hybrid library CCNG1
T30 chain: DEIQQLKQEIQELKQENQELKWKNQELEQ

4H4073-bN = target: T31, 4H4073-bN; assay: two-hybrid library CCNG1
T31 chain: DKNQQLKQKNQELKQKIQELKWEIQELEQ

4H3185-bN = target: T32, 4H3185-bN; assay: two-hybrid library CCNG1
T32 chain: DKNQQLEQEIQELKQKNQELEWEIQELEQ

4H687-bN = target: T33, 4H687-bN; assay: two-hybrid library CCNG1
T33 chain: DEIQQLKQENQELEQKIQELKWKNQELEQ

4H4001-bN = target: T34, 4H4001-bN; assay: two-hybrid library CCNG1
T34 chain: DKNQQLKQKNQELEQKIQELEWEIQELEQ

4H3926-bN = target: T35, 4H3926-bN; assay: two-hybrid library CCNG1
T35 chain: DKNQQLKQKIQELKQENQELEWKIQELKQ

4H3112-bN = target: T36, 4H3112-bN; assay: two-hybrid library CCNG1
T36 chain: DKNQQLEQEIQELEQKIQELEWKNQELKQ

4H908-bN = target: T37, 4H908-bN; assay: two-hybrid library CCNG1
T37 chain: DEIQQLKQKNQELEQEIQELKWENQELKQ

4H568-bN = target: T38, 4H568-bN; assay: two-hybrid library CCNG1
T38 chain: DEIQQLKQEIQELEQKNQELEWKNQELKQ

4H457-bN = target: T39, 4H457-bN; assay: two-hybrid library CCNG1
T39 chain: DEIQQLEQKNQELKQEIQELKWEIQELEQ

4H3855-bN = target: T40, 4H3855-bN; assay: two-hybrid library CCNG1
T40 chain: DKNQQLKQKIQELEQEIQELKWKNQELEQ

4H883-bN = target: T41, 4H883-bN; assay: two-hybrid library CCNG1
T41 chain: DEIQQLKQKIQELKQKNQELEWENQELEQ

4H797-bN = target: T42, 4H797-bN; assay: two-hybrid library CCNG1
T42 chain: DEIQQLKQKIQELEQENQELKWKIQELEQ

4H3172-bN = target: T43, 4H3172-bN; assay: two-hybrid library CCNG1
T43 chain: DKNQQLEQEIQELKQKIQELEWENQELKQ

4H331-bN = target: T44, 4H331-bN; assay: two-hybrid library CCNG1
T44 chain: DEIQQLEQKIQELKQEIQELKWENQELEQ

4H967-bN = target: T45, 4H967-bN; assay: two-hybrid library CCNG1
T45 chain: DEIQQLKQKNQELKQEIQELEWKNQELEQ

4H754-bN = target: T46, 4H754-bN; assay: two-hybrid library CCNG1
T46 chain: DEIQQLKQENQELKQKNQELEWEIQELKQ

4H968-bN = target: T47, 4H968-bN; assay: two-hybrid library CCNG1
T47 chain: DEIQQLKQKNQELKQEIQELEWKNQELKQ

4H338-bN = target: T48, 4H338-bN; assay: two-hybrid library CCNG1
T48 chain: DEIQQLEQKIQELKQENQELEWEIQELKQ

4H683-bN = target: T49, 4H683-bN; assay: two-hybrid library CCNG1
T49 chain: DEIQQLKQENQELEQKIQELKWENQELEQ

4H575-bN = target: T50, 4H575-bN; assay: two-hybrid library CCNG1
T50 chain: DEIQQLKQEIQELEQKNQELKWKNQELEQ

interaction score (4H327-AA): -1.02 | interaction score (4H369-AA): 0.0403 | interaction score (4H4033-AA): -1.47 | interaction score (4H2614-AA): -1.61 | interaction score (4H3605-AA): 1.29 | interaction score (4H481-AA): -0.0556 | interaction score (4H3922-AA): 0.635 | interaction score (4H2608-AA): -0.457 | interaction score (4H2935-AA): -1.66 | interaction score (4H2726-AA): 1.39 | interaction score (4H3664-AA): -1.51 | interaction score (4H3625-AA): -1.16 | interaction score (4H662-AA): -1.33 | interaction score (O3-AA): -1.65 | interaction score (4H55-AA): -1.17 | interaction score (4H2536-AA): -0.663
B1: 4H2536-AA (peptide)
chain: DKIAALEAKNAALKAKIAALEAKNAALKG

interaction score (4H3782-bN): -0.541 | interaction score (4H3817-bH): -0.521 | interaction score (4H3129-bH): -0.762 | interaction score (4H855-bN): 0.606 | interaction score (4H454-bN): 0.745 | interaction score (4H717-bN): -1.88 | interaction score (4H953-bN): 0.0741 | interaction score (4H780-bN): -0.0911 | interaction score (4H3354-bN): 0.377 | interaction score (4H72-bN): -0.5 | interaction score (4H3427-bN): 0.996 | interaction score (4H918-bN): 0.0994 | interaction score (4H346-bN): 0.282 | interaction score (4H607-bN): 0.634 | interaction score (4H4073-bN): -0.28 | interaction score (4H3185-bN): -1.11 | interaction score (4H687-bN): -1.66 | interaction score (4H4001-bN): -0.255 | interaction score (4H3926-bN): 0.154 | interaction score (4H3112-bN): -0.426 | interaction score (4H908-bN): 0.308 | interaction score (4H568-bN): 0.078 | interaction score (4H457-bN): -0.526 | interaction score (4H3855-bN): -0.962 | interaction score (4H883-bN): 1.54 | interaction score (4H797-bN): -0.676 | interaction score (4H3172-bN): 0.00481 | interaction score (4H331-bN): -0.918 | interaction score (4H967-bN): -1.11 | interaction score (4H754-bN): -1.34 | interaction score (4H968-bN): -0.158 | interaction score (4H338-bN): -0.816 | interaction score (4H683-bN): 0.347 | interaction score (4H575-bN): -1.34
B2: 4H3112-bN (peptide)
chain: DKNQQLEQEIQELEQKIQELEWKNQELKQ
